The source of these data is publication PMC6435357.

Where two headings read alike, the source gives them in different places.

With Env (BG505.T332N): N197S and N197T, where the note is “N-glycosylation at N195”, the other result is “decreases”.
For the substance Env (LAI): D113N, where the note is “N-glycosylation at N113”, the other entry is on record as “no change”.
Env (LAI): N197S/T: for the setting “N-glycosylation at N197”, the other entry is reported as “no change”.
